The target of this assay is T1, GST-K-Rta (Kaposi's sarcoma-associated herpesvirus …, UniProt F5HCV3 1-691).
T1 construct: also called GST-tagged K-Rta; source: recombinant baculovirus-infected Sf9 cells, purified
T1 sequence: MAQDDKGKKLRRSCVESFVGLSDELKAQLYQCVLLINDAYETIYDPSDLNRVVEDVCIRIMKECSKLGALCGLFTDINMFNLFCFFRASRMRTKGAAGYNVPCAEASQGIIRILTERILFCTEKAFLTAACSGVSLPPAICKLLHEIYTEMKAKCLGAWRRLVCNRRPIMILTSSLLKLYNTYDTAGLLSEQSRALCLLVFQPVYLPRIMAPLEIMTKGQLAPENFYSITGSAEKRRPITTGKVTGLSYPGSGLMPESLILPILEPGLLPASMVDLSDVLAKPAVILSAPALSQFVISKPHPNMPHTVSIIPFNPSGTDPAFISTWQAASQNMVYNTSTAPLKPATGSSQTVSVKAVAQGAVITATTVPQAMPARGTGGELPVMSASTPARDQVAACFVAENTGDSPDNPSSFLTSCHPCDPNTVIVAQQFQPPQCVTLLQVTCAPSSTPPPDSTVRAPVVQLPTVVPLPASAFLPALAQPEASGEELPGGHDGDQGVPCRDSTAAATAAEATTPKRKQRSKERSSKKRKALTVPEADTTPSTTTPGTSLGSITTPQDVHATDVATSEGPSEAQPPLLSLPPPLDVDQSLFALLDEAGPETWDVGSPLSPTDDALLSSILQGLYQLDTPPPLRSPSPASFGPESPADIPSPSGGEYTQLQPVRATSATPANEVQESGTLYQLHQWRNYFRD
Kind of assay: pull-down. To be noted: both partners purified.

B1: FLAG-tagged ZIC2 (natural protein, UniProt O95409 1-532, looked up)
chain: MLLDAGPQFPAIGVGSFARHHHHSAAAAAAAAAEMQDRELSLAAAQNGFVDSAAAHMGAFKLNPGAHELSPGQSSAFTSQGPGAYPGSAAAAAAAAALGPHAAHVGSYSGPPFNSTRDFLFRSRGFGDSAPGGGQHGLFGPGAGGLHHAHSDAQGHLLFPGLPEQHGPHGSQNVLNGQMRLGLPGEVFGRSEQYRQVASPRTDPYSAAQLHNQYGPMNMNMGMNMAAAAAHHHHHHHHHPGAFFRYMRQQCIKQELICKWIDPEQLSNPKKSCNKTFSTMHELVTHVSVEHVGGPEQSNHVCFWEECPREGKPFKAKYKLVNHIRVHTGEKPFPCPFPGCGKVFARSENLKIHKRTHTGEKPFQCEFEGCDRRFANSSDRKKHMHVHTSDKPYLCKMCDKSYTHPSSLRKHMKVHESSPQGSESSPAASSGYESSTPPGLVSPSAEPQSSSNLSPAAAAAAAAAAAAAAAVSAVHRGGGSGSGGAGGGSGGGSGSGGGGGGAGGGGGGSSGGGSGTAGGHSGLSSNFNEWYV
notes: ZIC2 (zinc finger protein of the cerebellum 2); cDNA cloned into pFastBac; also called FLAG-ZIC2; source: recombinant baculovirus-infected Sf9 cells, purified
As to B1, the binding result was “binds”.

The values above are taken from publication PMC5640855, “ZIC2 Is Essential for Maintenance of Latency and Is a Target of an Immediate Early Protein during Kaposi's Sarcoma-Associated Herpesvirus Lytic Reactivation” (Journal of Virology, 2017).
